Patent US20220315627A1

What was measured:
[1] = target: variant of repaired and stabilized Du422 construct (HIV161818) with the additional K655I substitution (HIV-1 strain Du422 (clade C)); experiment: assay not named in Example 11; trimer yield as defined in Example 3 (PGT145 AlphaLISA signal)
[2] = target: C97ZA_SOSIP_L556P_T651F_M535N (HIV-1 strain C97ZA (clade C)); experiment: AlphaLISA on crude supernatant as in Example 3: normalized PGT145 signal
[3] = target: ConC_SOSIP with E64K, T316W double substitution (HIV-1 clade C consensus (artificial)); experiment: AlphaLISA on crude supernatant: PGT145 signal divided by total Env signal (His/Flag beads)
[4] = target: ConC_SOSIP with disulfide double substitution I204C, A433C (HIV-1 clade C consensus (artificial)); experiment: as above
[5] = target: variant of repaired and stabilized Du422 construct (HIV161818) with the additional K655I substitution (HIV-1 strain Du422 (clade C)); experiment: assay not named in Example 11; trimer percentage as defined in Example 3 (PGT145 AlphaLISA signal over total Env signal)

**Q.** mAb PGT145 (antibody) was tested. Which trimer yield, fold over the variant of SEQ ID NO: 25 without K655I [1] did it give?
**A.** 1.3 fold

**Q.** And the trimer yield, fold over the C97ZA SOSIP backbone [2]?
**A.** 5 fold

**Q.** And the percentage of trimer formation [3]?
**A.** 15%

**Q.** What about the percentage of trimer formation [4] of the same substance?
**A.** 43%

**Q.** What about the trimer percentage, fold over the variant of SEQ ID NO: 25 without K655I [5] of the same substance?
**A.** 1.4 fold
